Laboratory results from patent US20080207449A1 (CROPDESIGN N V, published 2008).

How the values were obtained:
[1] = target: T1, pGBT DPb 1-385: GAL4 DNA-binding domain fusion of AtDPb 1-385 (Arabidopsis thaliana); assay: yeast two-hybrid, growth on His- minimal medium; empty prey vector control; legend: -, no interaction
T1 construct: its construction is not described

[2] = target: T2, pGBTE2Fa226-356: GAL4 DNA-binding domain fusion of AtE2Fa amino acids 226-356 (Arabidopsis); assay: as above
T2 construct: also called E2F5 dimerisation domain; E2Fa (=E2F5) dimerization domain

[3] = target: pGBTE2Fb 1-127: GAL4 DNA-binding domain fusion of AtE2Fb amino acids 1-127 (Arabidopsis); assay: as above
[4] = target: T3, pGBTE2Fb-Rb: GAL4 DNA-binding domain fusion of AtE2Fb amino acids 1-385 (lacking the Rb-binding domain) (Arabidopsis); assay: as above
T3 construct: also called E2F3 N-terminal; E2Fb (=E2F3) N-terminal domain

[5] = target: T4, pGBT DPa 1-292: GAL4 DNA-binding domain fusion of AtDPa 1-292 (Arabidopsis thaliana); assay: as above
T4 construct: its construction is not described

[6] = target: T5, empty pGBT9 (GAL4 DNA-binding domain alone) (UniProt P04386 1-147); assay: yeast two-hybrid, growth on His- minimal medium; both vectors empty; legend: -, no interaction
T5 construct: empty bait vector, control for specificity; also called pBGT9
Method: Different combinations between bait (pGBTE2Fa226-356, pGBTE2Fb-Rb, or pGBTE2Fb 1-127, SEQ ID NO:207) and prey constructs were transformed into yeast cells and assayed for their ability to grow on His⁻ minimal media after 3 days of incubation at 30° C. Bait plasmids co-transformed with empty pAD-GAL424 and prey plasmids co-transformed with empty pGBT9 were assessed along as controls for the specificity of the interaction.
Different combinations between AtE2Fs bait and AtDPs prey constructs were tested for growth on His minimal media. −, no interaction; +, positive interaction; NT, not tested.

Measured: binding result

B1: empty pAD-GAL424 (GAL4 transactivation domain alone) (other, UniProt P04386 768-881, looked up)
chain: ANFNQSGNIADSSLSFTFTNSSNGPNLITTQTNSQALSQPIASSNVHDNFMNNEITASKIDDGNNSKPLSPGWTDQTAYNAFGITTGMFNTTTMDDVYNYLFDDEDTPPNPKKE
notes: empty prey vector, control for specificity
no binding: [1] | [2] | [3] | [4] | [5] | [6]
